Reference: paper PMC11952670

Columns and labels:
[1] = target: ExsF, first 23 residues replaced by a 6xHis tag (B. paranthracis); assay: crystal structure; co-crystallisation of 6xHis-ExsF with the synthetic F-Anchor peptide; 5% v/v T-mate pH 7, 0.1 M sodium cacodylate pH 5.3, 15% v/v PEG smear broad, 10% v/v ethylene glycol; 1.92 Å, P21
[2] = target: C-terminal domain of F-BclA (F-BclA-CTD) (Bacillus thuringiensis subsp. kurstaki); assay: crystal structure; F-BclA-CTD; 1M LiCl, 0.1M citrate pH 4.0, 20% (w/v) PEG 6000; P321

| Substance | stoichiometry N [1] | stoichiometry N [2] |
| --- | --- | --- |
| ExsF, first 23 residues replaced by a 6xHis tag (domain or fragment) | 3 | – |
| C-terminal domain of F-BclA (F-BclA-CTD) (domain or fragment) | – | 3 |
